Test results: PMC9867772

Molecular target: Anthrol reductase CbAR from Cercospora sp. JNU001 (Cercospora sp. JNU001)
Assay: SEC; purified CbAR on gel filtration (Supplementary Fig. 1b, c); the column of the purification was Hiload 16/600 Superdex 200 pg in 25 mM Tris-HCl pH 8.0, 150 mM NaCl

Anthrol reductase CbAR from Cercospora sp. JNU001 (enzyme)
stoichiometry N: 2
